Laboratory results: publication PMC9959560

Columns and labels:
[1] = anti-FLAG WB normalised to β-actin, HeLa; conditions: glycan lost; control: wild-type SF
[2] = WB of culture media, HeLa (data not shown); conditions: glycan lost; control: wild-type SF
[3] = anisomycin chase 2-10 h, anti-FLAG WB, HeLa; conditions: glycan lost; control: wild-type SF
[4] = non-reducing SDS-PAGE and WB, dimer fraction, HeLa; conditions: glycan lost; control: wild-type SF
[5] = anti-Sda KM694 WB of HeLa glycoproteins, normalised; conditions: glycan lost; control: wild-type SF
[6] = confocal colocalisation with TMEM165 and Calnexin, HeLa; conditions: glycan lost; control: wild-type SF-eGFP
[7] = UDP-[3H]GalNAc transfer to fetuin, COS-7 lysates, normalised; conditions: glycan lost; control: wild-type SF

B1: SF-B4GALNT2: N77Q (protein)
parent chain: MTSGGSRFLWLLKILVIILVLGIVGFMFGSMFLQAVFSSPKPELPSPAPGVQKLKLLPEERLRNLFSYDGIWLFPKNQCKCEANKEQGGYNFQDAYGQSDLPAVKARRQAEFEHFQRREGLPRPLPLLVQPNLPFGYPVHGVEVMPLHTVPIPGLQFEGPDAPVYEVTLTASLGTLNTLADVPDSVVQGRGQKQLIISTSDRKLLKFILQHVTYTSTGYQHQKVDIVSLESRSSVAKFPVTIRHPVIPKLYDPGPERKLRNLVTIATKTFLRPHKLMIMLRSIREYYPDLTVIVADDSQKPLEIKDNHVEYYTMPFGKGWFAGRNLAISQVTTKYVLWVDDDFLFNEETKIEVLVDVLEKTELDVVGGSVLGNVFQFKLLLEQSENGACLHKRMGFFQPLDGFPSCVVTSGVVNFFLAHTERLQRVGFDPRLQRVAHSEFFIDGLGTLLVGSCPEVIIGHQSRSPVVDSELAALEKTYNTYRSNTLTRVQFKLALHYFKNHLQCAA
For B1, the expression_or_secretion [1] was “decreases”, the expression_or_secretion [2] was “no change” and the degradation_or_half_life [3] was “increases”. The oligomerisation [4] was “decreases”, the enzymatic_activity [5] was “no change” and the localisation_or_trafficking [6] was “changes”. The enzymatic_activity [7] was “decreases”.
